Test: yeast display, Sf9 membrane polyspecificity reagent, FACS + sequencing; frameworks hold sequencing errors
Outline: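 Polyreactivity labels are assigned by the sorting gate from which each nanobody was recovered. The gates were low and high (top ~1%), set on anti-HA fluorescence for expression and streptavidin fluorescence for reagent binding. Before sorting, galactose-induced (36–48 hours) yeast display cells were stained for 1 hour at 4 °C with 10% biotinylated, detergent-solubilized Sf9 membrane reagent.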

| Sequence | polyreactivity (PSR sort gate) |
| --- | --- |
| QVQLVESGGGLVQAGGSLRLSCAASGSTFPSNAMGWYRQAPGKERELVAAIRGRGGSTYYADSVKGRFTISRDNAKNTVYLQMNSLKPEDTAVYYCAKKVRSYVRWEYDYWGQGTQVTVSS | low polyreactivity |
| QVQLAESGGGLVQAGGSLRLSCAASGRIFYGYTMGWYRQAPGKERELVAAITWSGGSTYYADSVKGRFTISRDNAKNTVYLQMNSLKPKDTAVYYCAATLGNAADYDYGYWGQGTQVTVSS | high polyreactivity |
| QVHLVESGGGLVQAGGSLRLSCAASGFTIAFNAMGSYRQAPGKERELVASITGGGSTNYADSVKGRFTISRDNAKNTVYLQMNSLKPEDTAVYYCAARYFWAWERDLFLEFDYWGQGTQVTVSS | low polyreactivity |
| QVQLVESGGGLVQAGGSLRLSCAASGSTFKRYAMGWYRQAPGKEWELVAAISASGGSTSYADSVKGRFTISRDKAKNTVYLQMNSLIPEDTAVYYCARDRFRSRLDYWGQGTQVTVSS | high polyreactivity |
| QFQLVESCGGLVQAGGSLRLSCAASGPIFKSNAMGCYRQAPGKERELVAAISGSGGRTYYAHSVKGRFTISRDNANNTVYLQMNSLKPEDTAVYYCNAGGSYYARGMDYWGQGTQVTVSS | high polyreactivity |
| QVQLVESAVGLVQAGGSRRLSCAASGRTFDSNAMGWYRQAPGKEREFVAAISWSGGSTYYADSVKGRFTISRDNAKNTVYLQMNSLKREETAVYYCNRLGRHAPATRYGYWGLGTQVTVSS | high polyreactivity |
| KVQLVESGGGLVQAGGSLRLSCAASGFTFYGNAMGWYRQAPGKERELVATIRYRGGRTYYADSVKGRFTISRDNAKNTVYLQMNSLKPEDTAVYYCAARSVFLMWGQGTQVTVSS | high polyreactivity |
| QVQLVESGGGLVQAGGTLRLSCDASGLIFEYYAMGWYRQAPGKERELVAVINWSGASTYYADSVKGRFTISRDNAKNTVFLQMNSLKPEDTAVYYCAAGVLITGLRFDYWGQGSQVTVSS | low polyreactivity |
| QVQLVESGGGLVQAGGSLRLSCAAYSYVMGGYRQAPGKERELVAAISQSGGSTYYADSVKGRFTISRDNAKNTVYLQMNTLKPEDTAVYYCAASYQVRYDYWGQGTQVTVSS | high polyreactivity |
| QVQLVESGGGLVQAGGSLRLSCAASGSIFYLYAMGWYRQAPGKERELVADINWNGGTYYADSVKGRFTISRDNAKNTVYLQMNSLKPEDTAVYYCAAYYYPYEYDYWGQGTQVTVSS | high polyreactivity |
| QVKLVESGGGLVQAGGSLRLSCAASGFIFSNNAMGWYRQAPGKERELVAAITSSGGRTYYADSVKGRFTISRDYAKNTVYLQMNSLKPEDSSVYYCAAARYDIMGYWGLGTQVTVSS | high polyreactivity |
| QVQLVESGGCLVQAGGSLRLSCAASGRIFDHYAMGWYRQAPGKERELVAAITRSGGITYYADSVKGRFTISRDNAKNTVYLQMNSLKPDDTAVFYCAAYLKGNYYLGIARYVLYYWGQGTQVTVSS | low polyreactivity |
| YYADSVKGLFTISRDNAKNTVYLQMNSLNPEDTAVYYCNAGYYISFNPYDYWGQGTQVTVSS | low polyreactivity |
| QVQLVESGGGLVQAGGSLRLSCAASGFTFGAYAMGWYRHAPGKERELVAAINRRGGSTYYADSVKGRFTISRENAKNTVYLQMKSLKPEDTAVYYCNAPFGYDYWGQGTQVTVSS | high polyreactivity |
| QVQLVESGGGLVQAGGSLRFSCAASGSIFHYYAMGWYRQAPGKERELVAAISGGSRTKYADSVKGRFTISRDNAKNTVYLQMNSLKPEDTAVYYCAKRYYYPYRYYYWGQGTQVTVSS | high polyreactivity |
| QVQLVESGGGLVQAGGSLRLSCAASGRTFSYSAMGWYRQAPGKERELVAAITGSGGRTYYADSVKGRFTISRDNAKNTVYLQMNSLKPEDTAVYYCAARYLYEGQLRPIRYYHYGYWGQGTQVTVSS | high polyreactivity |
| QVQLVESGGCLVQAGGSLRFSCAASGSTFHRYVMGWYRQAPGKERELVAVINSTGGSTYYADSVKGRYTISRDNAKNTVYLQMNSLKPEDTAVYYCARVTRRGPGYTTLYSRYDYWGQGTQVNVSS | low polyreactivity |
| QVQLVESGGGLVQAGGSLRLSCAASGSIFAVYAMGWYRQAPGKERELVASITNDGSTYADSVKGRFTISRDNAKNTVYLQINSQKPEDTAVYYCNADYLTYFTTFDYWGQGTQVTVSS | low polyreactivity |
| QVQLVESGGGVVQAGGSLRLSCAASGSTAIYYTMGWYRQAPGKERELVAYADSVKGRFTISRDNAKTTVYLQMNSLKPEDTAVYSCAAPRTYYSELTSPYDYWGQGTQVTVSS | low polyreactivity |
| QVQLVESGGGLVQAGGSLRISCAASGSTFSLNAMGWYRQAPGKERELVAAISSRGTSTYYADSVKGRFTISRDNAKNTVYLQMNSLKPVDTAVYYCAAGKPKIPDDDYWGQGTQVTVSS | high polyreactivity |
| QVQLVESGGGLVQAGGSLRLSCAASGSIFFRNAMGWYRQAPGKERELVAAITSGGSTYYADSVKGRFTISRDNAKNTVYLQMNSLKPEDTAVYYCNREFWRSSSYRYYYWGQGTQVTVSS | high polyreactivity |
| QVQLVESGGALVQAGGSLRLSCSASGSIFHGYIMGWYRQAPGKERELVAAITTGGSTNYADSVKGRFTISRDNAKNTVYLQMNSLKPEDTAVYDCATDPYVDPSRDYLELGGYWGQGTQVTVSS | low polyreactivity |

| Sequence | polyreactivity (PSR sort gate) |
| --- | --- |
| QVQLVESGGGLVQAGGSLRLSCAASGRIIYTYEMGWYRQAPGKERELVAAISGSGGSTYYADSVKGRFTISRDNSKTTLYLQMNRLKPEDTGVYYCNGAYYGYENLYKRGYWGQGSQVTVSS | high polyreactivity |
| QVQHVESVGGLVQAGGSLRLSCAASGFIFRRYVMGWNRQAPGKERELVAAISYGGGSTYYADSVKGRFTISRDNAKNTVYLQMNCLKPEDTAVYYCNAVSYNLAAYEYWGQGTQVTVSS | high polyreactivity |
| QVQLVESGGGLVQEGGSLRLSCAASGRIIERSAMGWYRQAPGKERELVAGISISGGGTYYADSVKGRFTISRDKAKNTVYLLMNCLKPEDTSVYYCAGTFPREEYGYWGQGTQVTVSW | low polyreactivity |
| QVQLVESGGGLVQAGGSLRLSCAASGSTFVGNAMGSYRQAPGKERELVATISNSGGRTYYADSVKGRFTISRDNAKNPVYLQRNSLKPEDTAVYYCPADHPAFGPGYSFDYWGQGTQVTVSS | low polyreactivity |
| QVQLVESGGGLFQAGGSLRLNCAASGSIFGSYAMVWYIQAPGKELELVAAITSDGITNYADSVKGRFTISRDNEKNTDYLQMNSLKPEDTAVYYCAAPGPLGGSDYWGQGTQVTVSS | low polyreactivity |
| QVQLVESEGGLVQAGGSLRLSCAASGRTFHYYAMGWYRQAPGKERELVAAISSTGGSTYYADSVKGRFTISRDNAKNTVYLQMNSLKPEDPAVYYCAARRSRGYSPTYDYWGQGTQVTVSS | high polyreactivity |
| QVQLVESGGGLVQAGGSLRLSCAASGPTFPFNAMGWYRQAPGKERELVAAISWRDGRTYYADSVKGRFTISRDYAKNTVYLQMNSLKPEDTAVYYCNVVKRRSDWGMDYWGQGTQVTVSS | high polyreactivity |
| QVQLQESGGGLVQAGGSLRLSCAASGYISHADEMGWYRQAPGKEHELVASISNGGSTNYADSVKGRFTISRDNAKNTLYLQMNSLKSEDTAVNYCAAWTGQVDIHYYWGHGTQVTVSS | low polyreactivity |
| QVQLVESGGGLVQAGGSLRLSCAASGFTFGGYAMGCYRQAPGKESELVAAISGRGGRTYYADSVKGRFTISRDNAKNTVYLQMNSLKPEDTAVYYCAAPTNHWTRLSGDYWGQGTQVTVSS | high polyreactivity |
| QVQLVESGGGLVQAGGSLRLSCAASGRTFAYYAMGWYRQAPGKERELVAAITQSGGRTYYADSVKGRFTISRDNAKNTVYLQMNSLKPEDTAVYYCAARRISGKWEYDYWGQGTQVTVSS | high polyreactivity |
| QFQLVESGGGLVQAGGSLRLSCAASGLIFPKYAMGWYRQAPGKEREFVAAISGRGGTTYYADSVKGRFTISRDNAKNTVYLQMNSLKPEDTAVYYCAAGGPWANIYGNGYWGQGTQVTVSS | high polyreactivity |
| QVQLVESGGGLVQAGGSLRLSCAASGITFTYYAMGWYRQAPGKERELVAAINWNGGSTYYADSVKGRFTISRDNAKNTVYLQMNSLKPEDTAVYYCAAEFYIYGFVKFDYWGQGTQVTVSS | high polyreactivity |
| QVQLVESGGGLVQAGGSLRLSCAASGFTFYHYAMGWYRQAPGKERELVAAIDNGGSTYADSVKGRFTISRDNAKNTVYLQMNSLKPEDTAVYYCAAVYLRYINGFYYWGQGTQVTVSS | low polyreactivity |
| QVKLVESGGGLVQAGGSLRLSCAASGGTFTLYAMGWYRQAPGKERELVAAISTSGGSTYYADSVKGRFTISRDNAKNTVYLQMNSLKPEDTAVYYCAAVTRYAGRIRYGYWGQGTQVTVSS | high polyreactivity |
| QVQLVESGGGLVQAGGSLRLSCAASGFTLVKYVMGWYRQAPGKERELVAAINRSGTSTYYADSVKGRFTISRDNAKNTVYLQMNCLKPDDTAVYYCAADRSRNFDWGQGTQVTVSS | high polyreactivity |
| QVQLVESGVGLVQAGGSLRLSCAASGFIFYPNAMGWYRQAPGKEREWVAVITGGGSTRYADSVKGRFTISRDNAKNTVYLQMNSLKPEDTAVYYCAVGTVYLTYRGYEYWGQGTQVTVSS | high polyreactivity |
| QVQLVESGGGLVPAGGSLRLSCAASGFIFVTNGMGWYRQAPGKERELVAAITDNGGSTYYADSGKGRFTISRDNAKNTVYLQMNSLKPEDTAVYYCNADRVVGPYDGYDYWGQGTQVTVSS | low polyreactivity |
| QFQLVESGGGLGQAGGSNRLSCAASGRIFNIYAMGCYRQSPGKERELVADITSGGTKYADSVKGRFTISRDNAKNTVYLQMNSLKPEDTAVDYCAAEYLYYGGVDYWGQGTQVTVSS | high polyreactivity |
| QVQLVESGGGLVQAGGSLRLSCAASGRNFYGYAMGWYRQAPGKERELVAAISWSGGSTYYADSVKGRFTISRDNAKNTVYLQMNSLKPEDTAVYYCARRYRGGYKYDYWGQGTQVTVSS | high polyreactivity |
| QVQLVESGGGFVQAGGSLRLSCAASGSTFYHNAMGWYRPAPGKERELVAAISSGGSTHYADSVKGRFTISRDNEKNTVYLQKNILKPEDTAVYYCAKARPGFLYDHWGQGTQVTVSS | high polyreactivity |
| QVQLVESGGGLVQAGGSLRLSCAPSGRIFSWNAMGWYRQAPGKERELVAAISVRGGSTYADSVKGRFTISRDNAKNTVYLQMNSLKPEDTAVYYCAKTYYPYRLGEGQYEYDYWGQGTQVTVSS | low polyreactivity |
| QVQLVESGGGLVQAGGSLRFSCAASGSIFPYYAMGWYRQAPGKERELVAAISDSGDSTYYADSVKGRFTISRDNAKNTVYLQMNSLKPEDTAVYYCAADQTSSYYDPWGDYWGQGTQVTVSS | low polyreactivity |

From the nanobody polyreactivity screen of Harvey et al. (2022)
